Reference: article PMC9103234

Biological target: CD20 on the surface of Raji cells (human (endogenous in Raji)) (UniProt P11836)
Chain of UniProt P11836 (P11836 whole entry): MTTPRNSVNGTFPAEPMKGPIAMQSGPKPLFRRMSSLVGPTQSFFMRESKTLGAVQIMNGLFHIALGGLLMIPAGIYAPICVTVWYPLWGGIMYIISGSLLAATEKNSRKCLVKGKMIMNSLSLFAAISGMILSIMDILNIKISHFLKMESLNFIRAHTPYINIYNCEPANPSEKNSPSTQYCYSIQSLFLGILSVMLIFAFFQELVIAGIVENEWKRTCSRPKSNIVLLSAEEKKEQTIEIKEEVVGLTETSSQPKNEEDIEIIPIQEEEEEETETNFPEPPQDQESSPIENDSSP

rituximab (antibody)
EC50 of complement-dependent cytotoxicity on Raji cells (LDH release, guinea-pig complement): 0.88 nM
